The record followed here is patent publication US20200199234A1 (published 2020).

Test [1] concerns the target T1, FcRn, biotinylated, coupled to streptavidin-sepharose (Homo sapiens (Human), UniProt P55899 24-297; P61769 21-119, The receptor is biotinylated and coupled to streptavidin-sepharose. The patent states neither the biotinylation site nor any tag.).
T1 construct: also called FcRn-sepharose matrix; copies: 1 + 1
The experiment in a line: FcRn affinity chromatography.

The target of test [2] is T2, human CD19 on Nalm6 B cells (human, UniProt P15391 20-556).
T2 sequence: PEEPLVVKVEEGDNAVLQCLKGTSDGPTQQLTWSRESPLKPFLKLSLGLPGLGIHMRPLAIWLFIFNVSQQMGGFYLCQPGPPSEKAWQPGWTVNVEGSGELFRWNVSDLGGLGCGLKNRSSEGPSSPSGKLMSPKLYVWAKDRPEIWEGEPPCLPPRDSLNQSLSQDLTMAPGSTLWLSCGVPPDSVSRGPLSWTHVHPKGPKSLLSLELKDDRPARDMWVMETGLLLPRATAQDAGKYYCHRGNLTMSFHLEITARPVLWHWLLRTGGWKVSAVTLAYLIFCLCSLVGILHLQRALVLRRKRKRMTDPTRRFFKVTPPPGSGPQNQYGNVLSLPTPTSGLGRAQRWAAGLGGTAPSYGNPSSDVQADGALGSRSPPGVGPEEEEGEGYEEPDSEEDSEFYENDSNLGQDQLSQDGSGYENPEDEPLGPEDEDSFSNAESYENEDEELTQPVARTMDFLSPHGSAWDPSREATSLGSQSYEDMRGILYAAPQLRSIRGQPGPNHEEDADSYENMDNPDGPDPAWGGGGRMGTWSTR
The experiment in a line: flow cytometry on Nalm6 cells. (Flow cytometry measures light scatter and fluorescence of single cells or particles in a stream.)

Test [3] concerns the target T3, human CD28 expressed on cells (CHO-k1 stably overexpressing human CD28; T cells in functional assays) (human, UniProt P10747 19-220).
T3 construct: also called CHO huCD28; CHOk1-CD28
In words: flow cytometry on CHOk1-CD28 cells.

B1: Molecule 11D: CEA (A5H1EL1D)-CD28 (SA_Variant 29) 1+1 format (bispecific antibody, human IgG1, kappa, L234A L235A)
heavy 1: EIVLTQSPATLSLSPGERATLSCRASSSVTYIHWYQQKPGQAPRSWIYATSNLASGIPARFSGSGSGTDFTLTISSLEPEDFAVYYCQHWSSKPPTFGQGTKLEIKSSASTKGPSVFPLAPSSKSTSGGTAALGCLVKDYFPEPVTVSWNSGALTSGVHTFPAVLQSSGLYSLSSVVTVPSSSLGTQTYICNVNHKPSNTKVDKKVEPKSCDKTHTCPPCPAPEAAGGPSVFLFPPKPKDTLMISRTPEVTCVVVDVSHEDPEVKFNWYVDGVEVHNAKTKPREEQYNSTYRVVSVLTVLHQDWLNGKEYKCKVSNKALGAPIEKTISKAKGQPREPQVCTLPPSRDELTKNQVSLSCAVKGFYPSDIAVEWESNGQPENNYKTTPPVLDSDGSFFLVSKLTVDKSRWQQGNVFSCSVMHEALHNHYTQKSLSLSP
light 1: EVQLLESGGGLVQPGGSLRLSCAASGFTFTDYYMNWVRQAPGKGLEWLGFIGNKANAYTTEYSASVKGRFTISRDKSKNTLYLQMNSLRAEDTATYYCTRDRGLRFYFDYWGQGTTVTVSSASVAAPSVFIFPPSDEQLKSGTASVVCLLNNFYPREAKVQWKVDNALQSGNSQESVTEQDSKDSTYSLSSTLTLSKADYEKHKVYACEVTHQGLSSPVTKSFNRGEC
heavy 2: not shown
light 2: not shown
notes: also called P1AE4776; copies: 1 + 1 + 1 + 1
Take B1: the “FcRn affinity (relative retention time)” value in test [1] amounted to 0.17.

B2: Molecule 18D: CD19 (8B8-2B11)-CD28 (SA v11) 1+1 (bispecific antibody, human IgG1, kappa, L234A L235A)
heavy 1: not shown
heavy 2: DIVMTQTPLSLSVTPGQPASISCKSSQSLETSTGTTYLNWYLQKPGQSPQLLIYRVSKRFSGVPDRFSGSGSGTDFTLKISRVEAEDVGVYYCLQLLEDPYTFGQGTKLEIKSSASTKGPSVFPLAPSSKSTSGGTAALGCLVKDYFPEPVTVSWNSGALTSGVHTFPAVLQSSGLYSLSSVVTVPSSSLGTQTYICNVNHKPSNTKVDKKVEPKSCDKTHTCPPCPAPEAAGGPSVFLFPPKPKDTLMISRTPEVTCVVVDVSHEDPEVKFNWYVDGVEVHNAKTKPREEQYNSTYRVVSVLTVLHQDWLNGKEYKCKVSNKALGAPIEKTISKAKGQPREPQVCTLPPSRDELTKNQVSLSCAVKGFYPSDIAVEWESNGQPENNYKTTPPVLDSDGSFFLVSKLTVDKSRWQQGNVFSCSVMHEALHNHYTQKSLSLSP
light 1: not shown
light 2: QVQLVQSGAEVKKPGASVKVSCKASGYTFTDYIMHWVRQAPGQGLEWMGYINPYNDGSKYTEKFQGRVTMTSDTSISTAYMELSRLRSDDTAVYYCARGTYYYGPQLFDYWGQGTTVTVSSASVAAPSVFIFPPSDEQLKSGTASVVCLLNNFYPREAKVQWKVDNALQSGNSQESVTEQDSKDSTYSLSSTLTLSKADYEKHKVYACEVTHQGLSSPVTKSFNRGEC
notes: also called P1AF0377; CD19-CD28 v11
For the molecule B2, the EC50 in test [2] came to 0.363 nM; in test [3], 150 nM.

B3: Molecule 18E: CD19 (8B8-2B11)-CD28 (SA v27) 1+1 (bispecific antibody, human IgG1, kappa, L234A L235A)
heavy 1: not shown
heavy 2: DIVMTQTPLSLSVTPGQPASISCKSSQSLETSTGTTYLNWYLQKPGQSPQLLIYRVSKRFSGVPDRFSGSGSGTDFTLKISRVEAEDVGVYYCLQLLEDPYTFGQGTKLEIKSSASTKGPSVFPLAPSSKSTSGGTAALGCLVKDYFPEPVTVSWNSGALTSGVHTFPAVLQSSGLYSLSSVVTVPSSSLGTQTYICNVNHKPSNTKVDKKVEPKSCDKTHTCPPCPAPEAAGGPSVFLFPPKPKDTLMISRTPEVTCVVVDVSHEDPEVKFNWYVDGVEVHNAKTKPREEQYNSTYRVVSVLTVLHQDWLNGKEYKCKVSNKALGAPIEKTISKAKGQPREPQVCTLPPSRDELTKNQVSLSCAVKGFYPSDIAVEWESNGQPENNYKTTPPVLDSDGSFFLVSKLTVDKSRWQQGNVFSCSVMHEALHNHYTQKSLSLSP
light 1: not shown
light 2: QVQLVQSGAEVKKPGASVKVSCKASGYTFTDYIMHWVRQAPGQGLEWMGYINPYNDGSKYTEKFQGRVTMTSDTSISTAYMELSRLRSDDTAVYYCARGTYYYGPQLFDYWGQGTTVTVSSASVAAPSVFIFPPSDEQLKSGTASVVCLLNNFYPREAKVQWKVDNALQSGNSQESVTEQDSKDSTYSLSSTLTLSKADYEKHKVYACEVTHQGLSSPVTKSFNRGEC
notes: also called P1AF0378; CD19-CD28 v27
As to B3, the EC50 in test [2] was 0.368 nM; in test [3], 10.8 nM.

Broadly, the EC50 is the concentration needed to bring the measured effect to its halfway point. High values mean weaker potency, low ones greater potency.
